Tests used:
[1] = biological target: InfA peptide (GMVDGWYG) (Influenza A virus); assay: ITC, 25 °C, peptide titrated into antibody
[2] = biological target: InfA peptide (GMVDGWYG) (Influenza A virus); assay: ITC (summary in the description)

B1: InfA-15 monoclonal antibody (antibody, V domains shown)
VH: QVQLKESGPGLVAPSQSLSITCTVSGFSLTKSGLHWVRQPPGKGLEWLGVIWAGGSTDYNSALTSRLTITKDNSKSQIFFRLNSLQTADTAMYYCVRSTFLYAMDFWGQGTSVTVS
VL: DAVMTQTPLSLPVSLGDQASISCRSSPSLEHSNGNTYLNWYLQKPGQSPQLLIYRVSNRFSGVPDRFSGSGSGTDFTLKISRVEAEDLGVYFCLQVTHVPPTFGGGTKLEIKRA
Which Ka [1] does the source give for B1 here?
Its Ka is 8.6e+06 M⁻¹.

And the 結合定数 (order of magnitude, unit M as printed) [2]?
The 結合定数 (order of magnitude, unit M as printed) was 1000 nM.

— patent JP2011160681A
